Assay results from patent publication US20190160180A1 (FUSION PHARMACEUTICALS, published 2019).

How the values were obtained:
[1] = target: T1, human recombinant Endosialin (human, UniProt Q9HCU0 18-687, limits assumed); test: ELISA, plate coated with recombinant Endosialin
T1 construct: Coated on ELISA plates at 1 ug/ml; also called TEM-1; TEM1
T1 sequence: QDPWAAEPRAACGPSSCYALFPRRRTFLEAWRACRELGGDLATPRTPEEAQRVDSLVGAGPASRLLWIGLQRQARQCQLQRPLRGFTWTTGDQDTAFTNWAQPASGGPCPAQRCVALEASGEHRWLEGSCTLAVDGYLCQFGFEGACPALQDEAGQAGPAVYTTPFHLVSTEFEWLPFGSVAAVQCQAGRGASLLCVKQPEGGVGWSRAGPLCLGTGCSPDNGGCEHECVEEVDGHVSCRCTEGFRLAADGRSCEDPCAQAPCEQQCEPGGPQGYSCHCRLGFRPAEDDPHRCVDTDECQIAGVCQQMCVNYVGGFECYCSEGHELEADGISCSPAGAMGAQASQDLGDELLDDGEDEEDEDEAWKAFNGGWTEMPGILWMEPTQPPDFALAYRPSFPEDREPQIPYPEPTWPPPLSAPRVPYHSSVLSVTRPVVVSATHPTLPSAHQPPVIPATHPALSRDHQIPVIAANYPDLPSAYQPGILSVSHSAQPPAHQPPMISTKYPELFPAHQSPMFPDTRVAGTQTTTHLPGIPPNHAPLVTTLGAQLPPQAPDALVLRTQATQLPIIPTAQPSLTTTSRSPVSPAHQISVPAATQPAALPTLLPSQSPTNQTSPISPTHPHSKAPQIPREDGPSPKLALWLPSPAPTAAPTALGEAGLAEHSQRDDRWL
Protocol: (§1) Materials and Methods: (FIG. 2). (A) Ninety-six well plates (NUNC Maxisorp modules) were pre-coated with human recombinant Endosialin (1 μg/ml) overnight at 4° C. After blocking with 1% BSA in PBS+0.1% Tween-20 for 1 hour at 4° C., mMP-E-8.3, cMP-E-8.3, hMP-E-8.3 and a commercial antibody against Endosialin at the indicated concentration were added and incubated for 2 hours at room temperature. After several washes with PBS+0.1% Tween-20, a goat anti-mouse or anti-human IgG-HRP solution was added to each well and incubated for 1 hour at 37° C. After washes, stabilized chromogen was added to each well for at least 10 minutes in the dark, then the reaction was stopped with the addition of 1 N H₂SO4 and the absorbance was read at 450 nm with an ELISA reader. (B) Sjsa-1 human osteosarcoma cell line were stained with 1 μg/ml of mMP-E-8.3 antibody, or cMP-E-8.3 and hMP-E-8.3 at 100 ng/ml (blue line) and 1 ug/ml (green line) or with 1 μg/ml of a commercial antibody against Endosialin on ice for 30 minutes after incubation with a Goat anti-mouse/anti-human Alexa-488 conjugated antibodies for 1 hour on ice, cells were analyzed by flow cytometer (FACS). (C) Sjsa-1 human osteosarcoma cells were grown on glass coverslips for 24 hours. […]

[2] = target: T2, human Endosialin expressed by Sjsa-1 cells (human, UniProt Q9HCU0 18-757); test: flow cytometry on Sjsa-1 cells
T2 construct: Endogenous Endosialin on human cell lines; also called Endosialin present on the cell plasma membrane; Endosialin on cell surface (Sjsa-1, T/G HA-VSMC, A673, SKNAS, A375 cells)
T2 sequence: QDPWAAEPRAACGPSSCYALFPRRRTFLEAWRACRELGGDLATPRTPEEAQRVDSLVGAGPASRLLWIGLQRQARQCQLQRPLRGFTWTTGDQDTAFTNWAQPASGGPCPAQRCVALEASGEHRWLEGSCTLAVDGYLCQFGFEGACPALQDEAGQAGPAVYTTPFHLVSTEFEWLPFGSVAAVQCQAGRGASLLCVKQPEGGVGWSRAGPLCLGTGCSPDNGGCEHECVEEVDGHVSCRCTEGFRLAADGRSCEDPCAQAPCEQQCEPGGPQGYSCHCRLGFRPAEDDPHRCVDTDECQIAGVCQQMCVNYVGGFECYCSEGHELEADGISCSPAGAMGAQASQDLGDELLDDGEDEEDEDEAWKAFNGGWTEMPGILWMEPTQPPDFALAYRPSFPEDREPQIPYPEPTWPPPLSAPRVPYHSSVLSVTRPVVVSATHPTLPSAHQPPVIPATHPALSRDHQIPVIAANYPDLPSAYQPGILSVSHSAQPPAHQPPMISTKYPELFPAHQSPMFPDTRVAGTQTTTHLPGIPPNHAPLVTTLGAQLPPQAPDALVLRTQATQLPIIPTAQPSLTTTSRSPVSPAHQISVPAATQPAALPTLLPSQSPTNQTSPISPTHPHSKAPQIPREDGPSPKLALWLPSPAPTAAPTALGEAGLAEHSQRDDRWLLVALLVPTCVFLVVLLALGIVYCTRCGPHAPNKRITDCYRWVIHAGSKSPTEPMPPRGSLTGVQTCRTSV
Protocol: as §1

B1: cMP-E-8.3 (antibody, V domains shown)
VH: QVQLQESGPGLVAPSQSLSITCTVSGFSLTGYGVNWVRQPPEKGLEWLGMIWVDGSTDYNSALKSRLNISKDKSKSQVFLKMNSLQTDDTARYYCARGGYGAMDYWGQGTSVTVSS
VL: DIQMNQSPSSLSASLGDTITITCHASQNINVWLTWYQQKPGNIPKLLIYKASNLHTGVPSRFSGSGSGTGFTLTISSLQPEDIATYYCQQGQSYPWTFGGGTKLEIKR
notes: also called chimeric cMP-E-8.3; chimerized version of mMP-E-8.3
B1: binds [1]; binds [2].
